Ends that are not written are not given here. * marks the point of attachment. Biotin = O=C1N[C@H]2[C@H](CS[C@H]2CCCCC(=O)*)N1
Key:
[1] = molecular target: T1, GST-NeDLG PDZ domain fusion protein (presynaptic protein sao102, neuroendocrine-dlg; PDZ domains 1-2 of 3) (UniProt P08515 1-218 = GST); assay: A assay
T1 construct: also called NeDLG1

[2] = molecular target: T2, GST-PSD95 PDZ domain fusion protein (human post-synaptic density protein 95 AA387-724; PDZ domains 1-3 of 3) (human, UniProt P08515 1-218 = GST); assay: A assay
[3] = molecular target: GST-MINT3 PDZ domain fusion protein (human MINT3 AA11-52; PDZ domain 1 of 1) (human, UniProt P08515 1-218 = GST); assay: A/G assays
[4] = molecular target: T3, GST-TAX43 PDZ domain fusion protein (human tax interaction protein 43 AA15-85; PDZ domain 1 of 1) (human, UniProt P08515 1-218 = GST); assay: A/G assays
T3 construct: also called TX 43

[5] = molecular target: GST-NOS1 PDZ domain fusion protein (human neuronal nitric oxide synthase; PDZ domain 1 of 1) (human, UniProt P08515 1-218 = GST); assay: A/G assays
[6] = molecular target: GST-MPP1 PDZ domain fusion protein (55 Kd erythrocyte membrane protein AA101-186; PDZ domain 1 of 1) (UniProt P08515 1-218 = GST); assay: A/G assays
[7] = molecular target: T4, GST-MPP2 PDZ domain fusion protein (maguk p55 subfamily member 2 (DLG2) AA185-273; PDZ domain 1 of 1) (UniProt P08515 1-218 = GST); assay: A/G assays
T4 construct: also called MMP2

[8] = molecular target: T5, GST-CASK PDZ domain fusion protein (CASK AA495-584; PDZ domain 1 of 1) (mouse, UniProt P08515 1-218 = GST); assay: A/G assays
T5 construct: also called mCASK

[9] = molecular target: T6, GST-SYN1a PDZ domain fusion protein (alpha1-syntrophin AA96-189; PDZ domain 1 of 1) (UniProt P08515 1-218 = GST); assay: A/G assays
T6 construct: also called SYN 1 alpha; SYNTR 1 alpha

[10] = molecular target: GST-prIL16 PDZ domain fusion protein (putative interleukin 16 precursor AA170-383; PDZ domains 1-2 of 2) (UniProt P08515 1-218 = GST); assay: A/G assays
[11] = molecular target: T7, GST-RGS12 PDZ domain fusion protein (human regulator of G-protein signalling 12 AA35-103; PDZ domain 1 of 1) (human, UniProt P08515 1-218 = GST); assay: A/G assays
T7 construct: also called RSG12

[12] = molecular target: T8, GST-TIAM1 PDZ domain fusion protein (T-lymphoma invasion and metastasis inducing protein 1 AA1001-1088); PDZ 1 … (UniProt P08515 1-218 = GST); assay: A/G assays
[13] = molecular target: GST-PTN-4 PDZ domain fusion protein (protein-tyrosine phosphatase meg1 AA774-862; PDZ domain 1 of 1) (UniProt P08515 1-218 = GST); assay: A/G assays
[14] = molecular target: T9, GST-TAX2 PDZ domain fusion protein (human tax interaction protein 2 AA54-140; PDZ domain 1 of 1) (human, UniProt P08515 1-218 = GST); assay: A/G assays
T9 construct: also called TX 2

[15] = molecular target: T10, GST-CBP PDZ domain fusion protein (Cytohesin binding protein HE AA85-175; PDZ domain 1 of 1) (UniProt P08515 1-218 = GST); assay: A/G assays
T10 construct: also called Prot

[16] = molecular target: T11, GST-TAX40 PDZ domain fusion protein (human tax interaction protein 40 AA35-137; PDZ domain 1 of 1) (human, UniProt P08515 1-218 = GST); assay: A/G assays
T11 construct: also called TX 40

[17] = molecular target: T12, GST-TAX33 PDZ domain fusion protein (tax interaction protein 33 AA73-162; PDZ domain 1 of 1) (UniProt P08515 1-218 = GST); assay: A/G assays
T12 construct: also called TX33

[18] = molecular target: GST-AF6 PDZ domain fusion protein (af-6 protein AA985-1077; PDZ domain 1 of 1) (UniProt P08515 1-218 = GST); assay: A/G assays
[19] = molecular target: GST-DVL1 PDZ domain fusion protein (human dishevelled segment polarity protein homolog AA248-340); PDZ domain … (human, UniProt P08515 1-218 = GST); assay: A/G assays
[20] = molecular target: T13, GST-41.8 kD PDZ domain fusion protein (hypothetical 41.8 kD protein AA4-85; PDZ domain 1 of 1) (UniProt P08515 1-218 = GST); assay: A/G assays
T13 construct: also called hypoth

[21] = molecular target: GST-LIMK2 PDZ domain fusion protein (human LIM domain kinase 2 AA185-275; PDZ domain 1 of 1) (human, UniProt P08515 1-218 = GST); assay: A/G assays
[22] = molecular target: T14, GST-KIAA0316 PDZ domain fusion protein (KIAA0316 AA197-284; PDZ domain 1 of 1) (UniProt P08515 1-218 = GST); assay: A/G assays
T14 construct: also called K316

[23] = molecular target: GST-LIM PDZ domain fusion protein (Human LIM protein AA29-112; PDZ domain 1 of 1) (human, UniProt P08515 1-218 = GST); assay: A/G assays
[24] = molecular target: T15, GST-KIAA0303 PDZ domain fusion protein (KIAA0303 AA652-742; PDZ domain 1 of 1) (UniProt P08515 1-218 = GST); assay: A/G assays
T15 construct: also called K303

[25] = molecular target: T16, GST-KIAA0559 PDZ domain fusion protein (KIAA0559 AA766-870; PDZ1 of 1) (UniProt P08515 1-218 = GST); assay: A/G assays
T16 construct: also called K559

[26] = molecular target: T4, GST-MPP2 PDZ domain fusion protein …; assay: G assay
[27] = molecular target: T1, GST-NeDLG PDZ domain fusion protein …; assay: A/G assays
[28] = molecular target: T2, GST-PSD95 PDZ domain fusion protein …; assay: A/G assays
[29] = molecular target: T8, GST-TIAM1 PDZ domain fusion protein …; assay: A assay
[30] = molecular target: T13, GST-41.8 kD PDZ domain fusion protein …; assay: A and G assays

T4 sequence (P08515 1-218, tags or fused parts left off): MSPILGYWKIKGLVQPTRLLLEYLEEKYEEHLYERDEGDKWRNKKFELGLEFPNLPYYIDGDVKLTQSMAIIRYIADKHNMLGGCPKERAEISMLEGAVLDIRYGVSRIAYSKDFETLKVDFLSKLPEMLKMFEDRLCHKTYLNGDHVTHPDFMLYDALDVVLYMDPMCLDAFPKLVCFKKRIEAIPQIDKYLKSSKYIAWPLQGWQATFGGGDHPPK
Chain of GST-MPP1 PDZ domain fusion protein (55 Kd erythrocyte membrane protein AA101-186; PDZ domain 1 of 1) (P08515 1-218, tags or fused parts left off): as above
Chain of GST-LIMK2 PDZ domain fusion protein (human LIM domain kinase 2 AA185-275; PDZ domain 1 of 1) (P08515 1-218, tags or fused parts left off): as above
Chain of GST-AF6 PDZ domain fusion protein (af-6 protein AA985-1077; PDZ domain 1 of 1) (P08515 1-218, tags or fused parts left off): as above
T9 sequence (P08515 1-218, tags or fused parts left off): as above
T12 sequence (P08515 1-218, tags or fused parts left off): as above
Chain of GST-MINT3 PDZ domain fusion protein (human MINT3 AA11-52; PDZ domain 1 of 1) (P08515 1-218, tags or fused parts left off): as above
T1 sequence (P08515 1-218, tags or fused parts left off): as above
T10 sequence (P08515 1-218, tags or fused parts left off): as above
T8 sequence (P08515 1-218, tags or fused parts left off): as above
T3 sequence (P08515 1-218, tags or fused parts left off): as above
T11 sequence (P08515 1-218, tags or fused parts left off): as above
Chain of GST-DVL1 PDZ domain fusion protein (human dishevelled segment polarity protein homolog AA248-340); PDZ domain … (P08515 1-218, tags or fused parts left off): as above
Chain of GST-prIL16 PDZ domain fusion protein (putative interleukin 16 precursor AA170-383; PDZ domains 1-2 of 2) (P08515 1-218, tags or fused parts left off): as above
T6 sequence (P08515 1-218, tags or fused parts left off): as above
T2 sequence (P08515 1-218, tags or fused parts left off): as above
Chain of GST-NOS1 PDZ domain fusion protein (human neuronal nitric oxide synthase; PDZ domain 1 of 1) (P08515 1-218, tags or fused parts left off): as above
T15 sequence (P08515 1-218, tags or fused parts left off): as above
T7 sequence (P08515 1-218, tags or fused parts left off): as above
T14 sequence (P08515 1-218, tags or fused parts left off): as above
T13 sequence (P08515 1-218, tags or fused parts left off): as above

Row | Binder | binding result [3] | binding result [4] | binding result [5] | binding result [6] | binding result [7] | binding result [9] | binding result [10] | binding result [11] | binding result [13] | binding result [14] | binding result [15] | binding result [16] | binding result [17] | binding result [18] | binding result [19] | binding result [21] | binding result [22] | binding result [23] | binding result [24] | binding result [25] | also measured
1 | Biotin-VTSPNKHLGLVTPHKTELV [CD83 C-terminal PL peptide AA47L, biotinylated] | no binding | no binding | no binding | no binding | no binding | no binding | no binding | no binding | no binding | no binding | no binding | no binding | no binding | no binding | no binding | no binding | no binding | no binding | no binding | no binding | binding result [1]: binds; binding result [2]: binds; binding result [8]: no binding; binding result [12]: no binding; binding result [20]: no binding
2 | Biotin-ERLKLEPHEGLLLRFPYAA [CD98 (2F4) C-terminal PL peptide AA15L, biotinylated] | no binding | no binding | no binding | no binding |  | no binding | no binding | no binding | no binding | no binding | no binding | no binding | no binding | no binding | no binding | no binding | no binding | no binding | no binding | no binding | binding result [26]: binds; binding result [8]: no binding; binding result [12]: no binding; binding result [27]: no binding; binding result [28]: no binding; binding result [20]: no binding
3 | Biotin-PKQANGGAYQKPTKQEEFYA [CD138 (syndecan) C-terminal PL peptide AA18L, biotinylated] | no binding | no binding | no binding | no binding | no binding | no binding | no binding | no binding | no binding | no binding | no binding | no binding | no binding | no binding | no binding | no binding | no binding | no binding | no binding | no binding | binding result [29]: binds; binding result [27]: no binding; binding result [28]: no binding; binding result [30]: binds

Reference: patent US20090149339A1 (published 2009)
